Results: patent US20210032339A1 (AMPHIVENA THERAPEUTICS, published 2021)
“And” between values parts separate entries of the source, which are not always exact repeats. Equal entries are not always repeated.

Assays:
human CD33 [1] = biological target: T1, human CD33 (human, UniProt P20138 18-259); assay: cell-based or functional assay
human CD33 [2] = biological target: T1, human CD33; assay: cell-based or functional assay; remark: listed apart in the source
human CD33 [3] = biological target: T1, human CD33; assay: cell-based or functional assay; remark: listed apart in the source
human CD33 [4] = biological target: T1, human CD33; assay: cell-based or functional assay; remark: listed apart in the source
human CD33 [5] = biological target: T1, human CD33; assay: cell-based or functional assay; remark: listed apart in the source
human CD33 [6] = biological target: T1, human CD33; assay: flow cytometry, HL-60 cells
Method: (§1) Cells were incubated with 100 μL of serial dilutions of CD33/CD3 tandem diabodies. After washing three times with FACS buffer the cells were incubated with 0.1 mL of 10 μg/mL mouse monoclonal anti-His antibody in the same buffer for 45 min on ice. After a second washing cycle, the cells were incubated with 0.1 mL of 15 μg/mL FITC-conjugated goat anti-mouse IgG antibodies under the same conditions as before. As a control, cells were incubated with the anti-His IgG followed by the FITC-conjugated goat anti-mouse IgG antibodies without anti-CD33 tandem diabodies. […] The fluorescence of 1×10⁴ living cells was measured using a Beckman-Coulter FC500 MPL flow cytometer using the MXP software (Beckman-Coulter, Krefeld, Germany) or a Millipore Guava EasyCyte flow cytometer using the Incyte software (Merck Millipore, Schwalbach, Germany). Mean fluorescence intensities of the cell samples were calculated using CXP software (Beckman-Coulter, Krefeld, Germany) or Incyte software (Merck Millipore, Schwalbach, Germany). After subtracting the fluorescence intensity values of the cells stained with the secondary and tertiary reagents alone the values were used for calculation of the KD values with the equation for one-site binding (hyperbola) of the GraphPad Prism (version 6.00 for Windows, GraphPad Software, La Jolla Calif. USA). […]

human CD33 [7] = biological target: T1, human CD33; assay: flow cytometry, HL-60 cells; remark: listed apart in the source
human CD33 [8] = biological target: T1, human CD33; assay: flow cytometry, U-937 cells
Method: as §1

human CD3 [9] = biological target: T2, human CD3 (human, UniProt P07766 23-207); assay: flow cytometry, human T-cells
T2 construct: whole, on cells; Multi-chain complex on cells; also called hu CD3

human CD33 [10] = biological target: T1, human CD33; assay: flow cytometry, KG-1 cells
Method: as §1

human CD3 [11] = biological target: T2, human CD3; assay: flow cytometry, T cells

T1 sequence (P20138 18-259): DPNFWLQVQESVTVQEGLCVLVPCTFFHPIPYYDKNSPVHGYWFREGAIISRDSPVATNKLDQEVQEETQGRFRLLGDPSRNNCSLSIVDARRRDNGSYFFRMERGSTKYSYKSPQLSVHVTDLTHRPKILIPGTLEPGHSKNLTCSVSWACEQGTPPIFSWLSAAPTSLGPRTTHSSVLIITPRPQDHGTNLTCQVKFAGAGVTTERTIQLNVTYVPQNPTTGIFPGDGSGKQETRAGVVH
T2 sequence (P07766 23-207): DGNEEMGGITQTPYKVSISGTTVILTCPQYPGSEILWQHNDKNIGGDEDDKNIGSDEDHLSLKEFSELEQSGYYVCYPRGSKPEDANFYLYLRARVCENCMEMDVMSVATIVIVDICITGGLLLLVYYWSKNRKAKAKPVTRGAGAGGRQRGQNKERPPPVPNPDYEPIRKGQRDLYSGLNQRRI

| Binder | EC50 mean, cytotoxicity on BV-173 (human CD33 [1]) [pM] | EC50 mean, cytotoxicity on CHO-CD33 (human CD33 [1]) [pM] | EC50 mean, cytotoxicity on HL-60 (human CD33 [1]) [pM] | EC50 mean, cytotoxicity on K562 (human CD33 [1]) [pM] | EC50 mean, cytotoxicity on KASUMI-1 (human CD33 [1]) [pM] | EC50 mean, cytotoxicity on KG-1 (human CD33 [1]) [pM] | EC50 mean, cytotoxicity on RPMI-8226 (human CD33 [1]) [pM] | EC50 mean, cytotoxicity on THP-1 (human CD33 [1]) [pM] | EC50 mean, cytotoxicity on U-937 (human CD33 [1]) [pM] | lysis of KG-1 cells, IC50 (human CD33 [2]) | EC50 on HL-60 (cytotoxicity) (human CD33 [4]) [pM] | Kd (human CD33 [6]) [nM] | Kd (human CD33 [7]) [nM] | Kd (human CD33 [8]) [nM] | Kd (human CD3 [9]) [nM] | Kd (human CD33 [10]) [nM] | Kd (human CD3 [11]) [nM] | further results |
| --- | --- | --- | --- | --- | --- | --- | --- | --- | --- | --- | --- | --- | --- | --- | --- | --- | --- | --- |
| CD33/CD3 tandem diabody 12 (bispecific antibody) DIQMTQSPSSLSASVGDRVTITCRSSTGAVTTSNYANWVQQKPGKAPKALIGGTNKRAPGVPSRFSGSLIGDKATLTISSLQPEDFATYYCALWYSNLWVFGQGTKVEIKGGSGGSQVQLVQSGAEVKKPGASVKVSCKASGYTFTSYDINWVRQAPGQGLEWMGWMNPNSGNTGFAQKFQGRVTMTRDTSTSTVYMELSSLRSEDTAVYYCARDRAVTDYYYGMDVWGQGTLVTVSSGGSGQSVLTQPPSASGTPGQRVTISCSGSRSNIGSNTVNWYQQLPGTAPKLLIYGNNQRPSGVPDRFSGSKSGTSASLAISGLQSEDEADYYCATWDDSLIGWVFGGGTKLTVLGGSGGSEVQLVESGGGLVQPGGSLRLSCAASGFTFSTYAMNWVRQAPGKGLEWVGRIRSKYNNYATYYADSVKDRFTISRDDSKNSLYLQMNSLKTEDTAVYYCARHGNFGNSYVSYFAYWGQGTLVTVSSAAAGSHHHHHH | 1.4 | 11.8 | 1.4 | 4.5 | 1.3 | 1 | 14 | 1.9 | 0.9 | ~0.01 pM | – | – | – | – | – | – | – | – |
| CD33/CD3 tandem diabody 16 (bispecific antibody) DIQMTQSPSSLSASVGDRVTITCRSSTGAVTTSNYANWVQQKPGKAPKALIGGTNKRAPGVPSRFSGSLIGDKATLTISSLQPEDFATYYCALWYSNLWVFGQGTKVEIKGGSGGSQVQLVQSGAEVKKPGASVKVSCKASGYTFTSYDINWVRQAPGQGLEWMGWMNPNSGNTGFAQKFQGRVTMTRDTSTSTVYMELSSLRSEDTAVYYCARDRANTDYSLGMDVWGQGTLVTVSSGGSGQSVLTQPPSASGTPGQRVTISCSGSRSNIGSNTVNWYQQLPGTAPKLLIYGNNQRPSGVPDRFSGSKSGTSASLAISGLQSEDEADYYCATWDDSLIGWVFGGGTKLTVLGGSGGSEVQLVESGGGLVQPGGSLRLSCAASGFTFSTYAMNWVRQAPGKGLEWVGRIRSKYNNYATYYADSVKDRFTISRDDSKNSLYLQMNSLKTEDTAVYYCARHGNFGNSYVSYFAYWGQGTLVTVSSAAAGSHHHHHH | 3.2 | 24 | 1.6 | 4.8 | 2.4 | 1.9 | 2.8 | 6 | 1.3 | ~0.5 pM and 5 pM | – | – | – | – | – | – | – | EC50, calcein-release cytotoxicity on HL-60, 30 min (human CD33 [3]): 4.8 pM; EC50, calcein-release cytotoxicity on HL-60, 60 min (human CD33 [3]): 2.5 pM; EC50, calcein-release cytotoxicity on HL-60, 120 min (human CD33 [3]): 1.6 pM; EC50, calcein-release cytotoxicity on HL-60, 180 min (human CD33 [3]): 1.6 pM; EC50, calcein-release cytotoxicity on HL-60, 240 min (human CD33 [3]): 1.5 pM; EC50, calcein-release cytotoxicity on HL-60, 300 min (human CD33 [3]): 1.6 pM |
| CD33/CD3 tandem diabody 14 (bispecific antibody) DIQMTQSPSSLSASVGDRVTITCRSSTGAVTTSNYANWVQQKPGKAPKALIGGTNKRAPGVPSRFSGSLIGDKATLTISSLQPEDFATYYCALWYSNLWVFGQGTKVEIKGGSGGSQVQLVQSGAEVKKPGASVKVSCKASGYTFTSYDINWVRQAPGQGLEWMGWMNPNSGNTGFAQKFQGRVTMTRDTSTSTVYMELSSLRSEDTAVYYCARDRANTDFSYGMDVWGQGTLVTVSSGGSGQSVLTQPPSASGTPGQRVTISCSGSRSNIGSNTVNWYQQLPGTAPKLLIYGNNQRPSGVPDRFSGSKSGSSASLAISGLQSEDEADYYCATWDDSLIGWVFGGGTKLTVLGGSGGSEVQLVESGGGLVQPGGSLRLSCAASGFTFSTYAMNWVRQAPGKGLEWVGRIRSKYNNYATYYADSVKDRFTISRDDSKNSLYLQMNSLKTEDTAVYYCARHGNFGNSYVSYFAYWGQGTLVTVSSAAAGSHHHHHH | – | – | – | – | – | – | – | – | – | – | 1.6 | – | – | – | – | – | – | EC50, cytotoxicity on HL-60 (human CD33 [5]): 1.6 pM and 168 pg/mL; EC50, cytotoxicity on KG-1 (human CD33 [5]): 2.6 pM and 273 pg/mL; EC50, cytotoxicity on U-937 (human CD33 [5]): 3.6 pM and 378 pg/mL; EC50, cytotoxicity, mean of HL-60, U-937, KG-1 (human CD33 [5]): 2.6 pM and 273 pg/mL |
| CD33/CD3 tandem diabody 19 (bispecific antibody) DIQMTQSPSSLSASVGDRVTITCRSSTGAVTTSNYANWVQQKPGKAPKALIGGTNKRAPGVPSRFSGSLIGDKATLTISSLQPEDFATYYCALWYSNLWVFGQGTKVEIKGGSGGSQVQLVQSGAEVKKPGASVKVSCKASGYTFTSYYMHWVRQAPGQGLEWMGIINPSGGSTSYAQKFQGRVTMTRDTSTSTVYMELSSLRSEDTAVYYCARDVVPAAIDYYGMDVWGQGTTVTVSSGGSGQSVLTQPPSASGTPGQRVTISCSGSSSNIGSNTVNWYQQLPGTAPKLLIYSDNQRPSGVPDRFSGSKSGSSASLAISGLQSDDEADYYCATWDDSLNGAVFGGGTKLTVLGGSGGSEVQLVESGGGLVQPGGSLRLSCAASGFTFSTYAMNWVRQAPGKGLEWVGRIRSKYNNYATYYADSVKDRFTISRDDSKNSLYLQMNSLKTEDTAVYYCARHGNFGNSYVSYFAYWGQGTLVTVSSAAAGSHHHHHH | – | – | – | – | – | – | – | – | – | ~5 pM | – | – | – | – | – | – | – | – |
| CD33/CD3 tandem diabody 22 (bispecific antibody, Non-covalent homodimer; also called TandAb 22) DIQMTQSPSSLSASVGDRVTITCRSSTGAVTTSNYANWVQQKPGKAPKALIGGTNKRAPGVPSRFSGSLIGDKATLTISSLQPEDFATYYCALWYSNLWVFGQGTKVEIKGGSGGSQVQLVQSGAEVKKPGSSVKVSCKASGGTFSSYGISWVRQAPGQGLEWMGGIIPIFGSAHYAQKFQGRVTITADESTSTAYMELSSLRSEDTAVYYCAREYYYDSSEWAFDIWGQGTLVTVSSGGSGQSVLTQPPSASGTPGQRVTISCSGSSSNIGSNTVKWYQQLPGTAPKLLIYSNNQRSSGVPDRFSGSKSGTSASLAISGLQSEDEADYYCAAWDDSLNGYVFGGGTKLTVLGGSGGSEVQLVESGGGLVQPGGSLRLSCAASGFTFSTYAMNWVRQAPGKGLEWVGRIRSKYNNYATYYADSVKDRFTISRDDSKNSLYLQMNSLKTEDTAVYYCARHGNFGNSYVSYFAYWGQGTLVTVSSAAAGSHHHHHH | – | – | – | – | – | – | – | – | – | – | 3.2 | 0.7 | 0.7 | 8.6 | 4.1 | 2 | 4.1 | – |
| CD33/CD3 tandem diabody 23 (bispecific antibody, Non-covalent homodimer; also called TandAb 23) DIQMTQSPSSLSASVGDRVTITCRSSTGAVTTSNYANWVQQKPGKAPKGLIGGTNKRAPGVPSRFSGSLIGTDFTLTISSLQPEDFATYYCALWYSNLWVFGQGTKVEIKGGSGGSQVQLVQSGAEVKKPGSSVKVSCKASGGTFSSYGISWVRQAPGQGLEWMGGIIPIFGSAHYAQKFQGRVTITADESTSTAYMELSSLRSEDTAVYYCAREYYYDSSEWAFDIWGQGTLVTVSSGGSGQSVLTQPPSASGTPGQRVTISCSGSSSNIGSNTVKWYQQLPGTAPKLLIYSNNQRSSGVPDRFSGSKSGTSASLAISGLQSEDEADYYCAAWDDSLNGYVFGGGTKLTVLGGSGGSEVQLVESGGGLVQPGGSLRLSCAASGFTFSTYAMNWVRQAPGKGLEWVGRIRSKYNNYATYYADSVKDRFTISRDDSKNSLYLQMNSLKTEDTAVYYCARHGNFGNSYVSWFAYWGQGTLVTVSSAAAGSHHHHHH | – | – | – | – | – | – | – | – | – | – | 2.8 | 0.4 | 0.4 | 5.1 | 97.2 | 1 | 97.2 | – |
